Data from publication PMC8191807, “The fidelity of DNA replication, particularly on GC-rich templates, is reduced by defects of the Fe–S cluster in DNA polymerase δ” (Nucleic Acids Research, 2021).
Blank lines part the entries; values can stand above or below the binder they belong to.

Key:
[1] = molecular target: T1, Pol3p, catalytic subunit of DNA polymerase δ (overexpressed for Pol δ purification) (S. cerevisiae, UniProt P15436 1-1097); test: co-purification (glutathione Sepharose, MonoS FPLC), composition by gel electrophoresis; Pol3p, Pol31p and Pol32p overexpressed together in the MET18 strain BJ2168; batch bound to glutathione Sepharose 4B at 4°C, washed with Hep250, Hep150, Hep50, eluted with 20 mM glutathione, PreScission Protease, MonoS gradient 50-1000 mM NaCl; conditions: partners not purified
T1 construct: Pol3p, catalytic subunit of DNA polymerase δ, Saccharomyces cerevisiae; also called catalytic subunit of Pol δ; source: purified on glutathione Sepharose 4B, PreScission Protease, MonoS FPLC
T1 sequence (looked up): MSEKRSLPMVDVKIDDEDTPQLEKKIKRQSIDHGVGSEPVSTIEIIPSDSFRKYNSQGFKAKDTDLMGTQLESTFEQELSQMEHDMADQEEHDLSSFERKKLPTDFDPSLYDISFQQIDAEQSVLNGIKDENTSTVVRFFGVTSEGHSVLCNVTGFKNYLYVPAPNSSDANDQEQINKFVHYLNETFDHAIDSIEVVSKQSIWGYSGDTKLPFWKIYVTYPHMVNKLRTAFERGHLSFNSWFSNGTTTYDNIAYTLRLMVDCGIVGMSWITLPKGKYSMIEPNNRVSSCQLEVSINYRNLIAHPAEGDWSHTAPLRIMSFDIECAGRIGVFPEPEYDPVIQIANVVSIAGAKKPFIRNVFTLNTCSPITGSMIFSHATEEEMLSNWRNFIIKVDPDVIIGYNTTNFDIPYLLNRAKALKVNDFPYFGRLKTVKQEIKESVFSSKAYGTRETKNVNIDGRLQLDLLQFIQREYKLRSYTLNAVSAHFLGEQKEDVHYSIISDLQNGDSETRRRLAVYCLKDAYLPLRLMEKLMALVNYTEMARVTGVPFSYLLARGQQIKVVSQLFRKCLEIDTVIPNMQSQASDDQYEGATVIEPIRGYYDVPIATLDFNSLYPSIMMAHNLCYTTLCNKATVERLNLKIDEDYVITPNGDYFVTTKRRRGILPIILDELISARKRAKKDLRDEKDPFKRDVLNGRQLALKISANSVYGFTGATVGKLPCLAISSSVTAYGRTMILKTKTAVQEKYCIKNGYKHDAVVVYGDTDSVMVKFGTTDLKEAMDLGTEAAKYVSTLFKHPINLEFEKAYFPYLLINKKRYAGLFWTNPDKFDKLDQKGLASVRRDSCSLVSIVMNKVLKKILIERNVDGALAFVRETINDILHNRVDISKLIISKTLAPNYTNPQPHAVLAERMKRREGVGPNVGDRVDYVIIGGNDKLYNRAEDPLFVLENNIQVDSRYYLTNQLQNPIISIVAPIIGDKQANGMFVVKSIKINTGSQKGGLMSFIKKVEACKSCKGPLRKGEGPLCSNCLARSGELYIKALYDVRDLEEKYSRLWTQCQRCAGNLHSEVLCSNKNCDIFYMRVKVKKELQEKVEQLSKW

[2] = molecular target: T2, Pol3 fused to a LexA DNA-binding domain (LexABD-POL3, pBL322) (S. cerevisiae, UniProt P15436 1-1097); test: two-hybrid; LexA DNA-binding domain and GAL4 activation domain fusions, (lexAop)8-lacZ reporter, quantitative β-galactosidase assays in triplicate; wild-type strain L40 and its met18Δ derivative DKy440; conditions: partners not purified
T2 construct: Pol3p, catalytic subunit of DNA polymerase δ, Saccharomyces cerevisiae; also called Pol3^BD; source: yeast two-hybrid fusion (2μ vector pBTM116, strain L40 or its met18Δ derivative DKy440)
T2 sequence (looked up): T1 sequence (looked up)

stoichiometry N [1]: 0.8 molar ratio relative to Pol3p
B1: Pol31p, accessory subunit of DNA polymerase δ (overexpressed for Pol δ purification) (natural protein, S. cerevisiae, UniProt P46957 1-487, looked up)
chain: MDALLTKFNEDRSLQDENLSQPRTRVRIVDDNLYNKSNPFQLCYKKRDYGSQYYHIYQYRLKTFRERVLKECDKRWDAGFTLNGQLVLKKDKVLDIQGNQPCWCVGSIYCEMKYKPNVLDEVINDTYGAPDLTKSYTDKEGGSDEIMLEDESGRVLLVGDFIRSTPFITGVVVGILGMEAEAGTFQVLDICYPTPLPQNPFPAPIATCPTRGKIALVSGLNLNNTSPDRLLRLEILREFLMGRINNKIDDISLIGRLLICGNSVDFDIKSVNKDELMISLTEFSKFLHNILPSISVDIMPGTNDPSDKSLPQQPFHKSLFDKSLESYFNGSNKEILNLVTNPYEFSYNGVDVLAVSGKNINDICKYVIPSNDNGESENKVEEGESNDFKDDIEHRLDLMECTMKWQNIAPTAPDTLWCYPYTDKDPFVLDKWPHVYIVANQPYFGTRVVEIGGKNIKIISVPEFSSTGMIILLDLETLEAETVKIDI
notes: Pol31p, accessory subunit of DNA polymerase δ, Saccharomyces cerevisiae

fold reduction of β-galactosidase in the met18 strain relative to the wild-type strain [2]: ~2 fold
B2: Pol31 fused to a GAL4-activation domain (GAL4AD-POL31, pBL364) (natural protein, S. cerevisiae, UniProt P46957 1-487, looked up)
chain: B1 chain
notes: Pol31p, accessory subunit of DNA polymerase δ, Saccharomyces cerevisiae; also called Pol31^AD; source: yeast two-hybrid fusion (2μ vector pACT2, strain L40 or its met18Δ derivative DKy440)

stoichiometry N [1]: 1.1 molar ratio relative to Pol3p
B3: Pol32p, accessory subunit of DNA polymerase δ (overexpressed for Pol δ purification) (natural protein, S. cerevisiae, UniProt P47110 1-350, looked up)
chain: MDQKASYFINEKLFTEVKPVLFTDLIHHLKIGPSMAKKLMFDYYKQTTNAKYNCVVICCYKDQTIKIIHDLSNIPQQDSIIDCFIYAFNPMDSFIPYYDIIDQKDCLTIKNSYELKVSESSKIIERTKTLEEKSKPLVRPTARSKTTPEETTGRKSKSKDMGLRSTALLAKMKKDRDDKETSRQNELRKRKEENLQKINKQNPEREAQMKELNNLFVEDDLDTEEVNGGSKPNSPKETDSNDKDKNNDDLEDLLETTAEDSLMDVPKIQQTKPSETEHSKEPKSEEEPSSFIDEDGYIVTKRPATSTPPRKPSPVVKRALSSSKKQETPSSNKRLKKQGTLESFFKRKAK
notes: Pol32p, accessory subunit of DNA polymerase δ, Saccharomyces cerevisiae
